Experimental data taken from patent US20240272170A1.

T1: HA peptide (Octet assay of PS621 variants)
T1 sequence (peptide): HAKLDEESILKQK


Key:
[1] = biological target: YRELRLLK after cleavage to N-terminal arginine (RELRLLK); assay: single-molecule dynamic sequencing on chip
[2] = biological target: YRELRLLK after cleavage to N-terminal arginine (RELRLLK); assay: on-chip single-molecule dynamic sequencing with PS610, PS961, PS621 and aminopeptidases; median of the RS mean PD distribution; panel YREL
[3] = biological target: FA peptide (Octet assay of PS557 variants); assay: Octet (BLI), peptide on sensor, response after 200 s association
[4] = biological target: WA peptide (Octet assay of PS557 variants); assay: as above
[5] = biological target: YA peptide (Octet assay of PS557 variants); assay: as above
[6] = biological target: IA peptide (Octet assay of PS557 variants); assay: as above
[7] = biological target: MA peptide (Octet assay of PS557 variants); assay: as above
[8] = biological target: FA peptide (Octet assay of PS557 variants); assay: Octet (BLI), peptide on sensor, response after 200 s association; second PS829 row
[9] = biological target: IA peptide (Octet assay of PS557 variants); assay: as above
[10] = biological target: MA peptide (Octet assay of PS557 variants); assay: as above
[11] = biological target: N-terminal alanine peptide (SNAP display selection); assay: SNAP display, 4 rounds of selection on alanine peptide; NGS abundance in round 4 / naive library
[12] = biological target: T1, HA peptide (Octet assay of PS621 variants); assay: Octet (BLI), 30 C

| Binder | Octet response [3] [nm] | Octet response [6] [nm] | Octet response [7] [nm] | also measured |
| --- | --- | --- | --- | --- |
| PS621 (protein) MHSKFSHAGRICGAKFKVGEPIYRCKECSFDDTCVLCVNCFNPKDHTGHHVYTTICTEFNNGICDCGDKEAWNHTLFCKAEEG |  |  |  | median interpulse duration (IPD) [1]: 10.1 s; median RS mean PD [2]: 0.19 s |
| PS796 (designed binder) MPTAASATESAIEDTPAPARPEVDGRTKPKRQPRYHVVLWDDDDHTYQYVVVMLQSLFGHPPERGYRLAKEMDTQGRVIVLTTTREHAELKRDQIHAFGYDRLLARSKGSMKASIEAEE | 1.37 | 11.6 | 8.42 | Octet response [4]: 0.761 nm; Octet response [5]: 1.23 nm |
| PS797 (designed binder) MPTAASATESAIEDTPAPARPEVDGRTKPKRQPRYHVVLWDDDDHTYQYVVVMLQSLFGHPPERGYRLAKEMDTLGRVIVLTTTREHAELKRDQIHAFGYDRLLARSKGSMKASIEAEE | 0.202 | 11.6 | 8.71 |  |
| PS798 (designed binder) MPTAASATESAIEDTPAPARPEVDGRTKPKRQPRYHVVLWNDDDHTYQYVVVMLQSLFGHPPERGYRLAKEMDTLGRVIVLTTTREHAELKRDQIHAFGYDRLLARSKGSMKASIEAEE | 1.41 | 12.7 | 9.37 |  |
| PS829 (designed binder) MPTAASATESAIEDTPAPARPEVDGRTKPKRQPRYHVVLWDDDDHTYQYVVVMLQSLFGHPRERGYRLAKEMDTLGRVIVLTTTREHAELKRDQIHAFGYDRLLARSKGSMKASIEAEE | 0.797 | 7.51 | 4.7 | Octet response [4]: 0.625 nm; Octet response [5]: 0.749 nm; Octet response [8]: 1.18 nm; Octet response [9]: 8.85 nm; Octet response [10]: 7.86 nm |
| PS831 (designed binder) MPTAASATESAIEDTPAPARPEVDGRTKPKRQPRYHVVLWNDDDHTYQYVVVMLQSLFGHPRKRGYRLAKEMDTLGRVIVLTTTREHAELKRDQIHAFGYDRLLARSKGSMKASIEAEE | 0.755 | 10.5 | 4.86 |  |
| PS838 (designed binder) MPTAASATESAIEDTPAPARPEVDGRTKPKRQPRYHVVLWDDDDHTYQYVVVMLQSLFGHPRERGYRLAKEMDTQGRVIVLTTTREHAELKRDQIHAFGYDRLLARSKGSMKASIEAEE | 0.377 | 11.2 | 8.09 | Octet response [4]: 0.0581 nm; Octet response [5]: 0.59 nm |
| PS801/PS814 (designed binder) MPTAASATESAIEDTPAPARPEVDGRTKPKRQPRYHVVLWNDDDHTYQYVVVMLQSLFGHPPKRGYRLAKEVDTQGRVIVLTTTREHAELKRDQIHAFGYDRLLARSKGSMKASIEAEE | 0.00662 | 9.02 | 1.75 | Octet response [4]: 0.0148 nm; Octet response [5]: 0.054 nm |
| PS808 (designed binder) MPTAASATESAIEDTPAPARPEVDGRTKPKRQPRYHVVLWNDDDHTYQYVVVMLRSLFGHPPERGYRLAKEVDTQGRVIVLTTTREHAELKRDQIHAFGYDRLLARSKGSMKASIEAEE | 0.00233 | 9.27 | 1.88 | Octet response [4]: 0.00243 nm; Octet response [5]: 0.0539 nm |
| PS809 (designed binder) MPTAASATESAIEDTPAPARPEVDGRTKPKRQPRYHVVLWNDDDHTYQYVVVMLQSLFGHPPERGYRLAKEMDTQGRVIVLTTTREHAELKRDQIHAFGYDRLLARSKGSMKASIEAEE | 0.0032 | 8.52 | 2.23 | Octet response [4]: 0.0117 nm; Octet response [5]: 0.0027 nm |
| PS819 (designed binder) MPTAASATESAIEDTPAPARPEVDGRTKPKRQPRYHVVLWDDDDHTYQYVVVMLQSLFGHPPKRGYRLAKEMDTQGRVIVLTTTREHAELKRDQIHAFGYDRLLARSKGSMKASIEAEE |  | 9.06 | 3.75 |  |
| PS828 (designed binder) MPTAASATESAIEDTPAPARPEVDGRTKPKRQPRYHVVLWDDDDHTYQYVVVMLQSLFGHPRERGYRLAKEVDTLGRVIVLTTTREHAELKRDQIHAFGYDRLLARSKGSMKASIEAEE | 0.583 | 5.32 | 1.7 |  |
| PS830 (designed binder) MPTAASATESAIEDTPAPARPEVDGRTKPKRQPRYHVVLWDDDDHTYQYVVVMLQSLFGHPRKRGYRLAKEMDTLGRVIVLTTTREHAELKRDQIHAFGYDRLLARSKGSMKASIEAEE | 0.0339 | 6.51 | 2.16 |  |
| PS847 (designed binder) MPTAASATESAIEDTPAPARPEVDGRTKPKRQPRYHVVLWDDDDHTYQYVVVMLRSLFGHPPERGYRLAKEMDTQGRVIVLTTTREHAELKRDQIHAFGYDRLLARSKGSMKASIEAEE | 0.059 | 7.77 | 3.23 | Octet response [4]: 0.0098 nm; Octet response [5]: 0.0607 nm |
| PS557 mutant N41D, Q55R, H60I, V72M (SNAP display clone) (designed binder, not shown: large carriers; small tags and cut ends, In the selection the protein carried an N-terminal SNAP tag covalently bound to benzylguanine on its own coding DNA; this is not in the letters.) MPTAASATESAIEDTPAPARPEVDGRTKPKRQPRYHVVLWDDDDHTYQYVVVMLRSLFGIPPERGYRLAKEMDTQGRVIVLTTTREHAELKRDQIHAFGYDRLLARSKGSMKASIEAEE |  |  |  | Enrichment [11]: 320 |
| PS557 mutant N41D, Q55R, E63S, L68M, V72M, Y100R (SNAP display clone) (designed binder, not shown: large carriers; small tags and cut ends, In the selection the protein carried an N-terminal SNAP tag covalently bound to benzylguanine on its own coding DNA; this is not in the letters.) MPTAASATESAIEDTPAPARPEVDGRTKPKRQPRYHVVLWDDDDHTYQYVVVMLRSLFGHPPSRGYRMAKEMDTQGRVIVLTTTREHAELKRDQIHAFGRDRLLARSKGSMKASIEAEE |  |  |  | Enrichment [11]: 166 |
| PS557 mutant N41D, Q55R, P62Y, E63T, V72M, Y100R (SNAP display clone) (designed binder, part only, N-terminal SNAP tag) MPTAASATESAIEDTPAPARPEVDGRTKPKRQPRYHVVLWDDDDHTYQYVVVMLRSLFGHPYTRGYRLAKEMDTQGRVIVLTTTREHAELKRDQIHAFGRDRLLARSKGSMKASIEAEE |  |  |  | Enrichment [11]: 158 |
| PS557 mutant N41D, Q55R, E63A, V72M, Y100R (SNAP display clone) (designed binder, not shown: large carriers; small tags and cut ends, In the selection the protein carried an N-terminal SNAP tag covalently bound to benzylguanine on its own coding DNA; this is not in the letters.) MPTAASATESAIEDTPAPARPEVDGRTKPKRQPRYHVVLWDDDDHTYQYVVVMLRSLFGHPPARGYRLAKEMDTQGRVIVLTTTREHAELKRDQIHAFGRDRLLARSKGSMKASIEAEE |  |  |  | Enrichment [11]: 154 |
| PS557 mutant N41D, Q55R, E63W, V72M, R106H (SNAP display clone) (designed binder, not shown: large carriers; small tags and cut ends, In the selection the protein carried an N-terminal SNAP tag covalently bound to benzylguanine on its own coding DNA; this is not in the letters.) MPTAASATESAIEDTPAPARPEVDGRTKPKRQPRYHVVLWDDDDHTYQYVVVMLRSLFGHPPWRGYRLAKEMDTQGRVIVLTTTREHAELKRDQIHAFGYDRLLAHSKGSMKASIEAEE |  |  |  | Enrichment [11]: 133 |
| PS557 mutant N41D, E63S, L68M, V72M, R106H (SNAP display clone) (designed binder, not shown: large carriers; small tags and cut ends, In the selection the protein carried an N-terminal SNAP tag covalently bound to benzylguanine on its own coding DNA; this is not in the letters.) MPTAASATESAIEDTPAPARPEVDGRTKPKRQPRYHVVLWDDDDHTYQYVVVMLQSLFGHPPSRGYRMAKEMDTQGRVIVLTTTREHAELKRDQIHAFGYDRLLAHSKGSMKASIEAEE |  |  |  | Enrichment [11]: 124 |
| PS1101 (designed binder) MHSKFSHAGRICGAKFKVREPIYRCKECSFDDTCVLCVNCFNPKDHTGHHVYTTICTEFNNGICDCGDKEAWNHTLFCKAEEG |  |  |  | Octet response [12]: 0.1 |
| PS1103 (designed binder) MHSKFSHAGRICGAKFKVGEPIYRCKECSFDYTCVLCVNCFNPKDHTGHHVYTTICTEFNNGICDCGDKEAWNHTLFCKAEEG |  |  |  | Octet response [12]: 0.1 |
| PS1111 (designed binder) MHSKFSHAGRICGAKFKVGEPIYRCKECSFDDTCVLCVNCFNPKDHTGHHVYTTICTEFNNGICDCGDKSAWNHTLFCKAEEG |  |  |  | Octet response [12]: 0.1 |
| PS1112 (designed binder) MHSKFSHAGRICGAKFKVGEPIYRCKECSFDDTCVLCVNCFNPKDHTGHHVYTTICTEFNNGICDCGDKTAWNHTLFCKAEEG |  |  |  | Octet response [12]: 0.1 |
| PS1116 (designed binder) MHSKFSHAGRICGAKFKVGEPIYRCKECSFDDTCVLCVNCFNPKDHTYHHVYTTICTEFNNGICDCGDKEAWNHTLFCKAEEG |  |  |  | Octet response [12]: 0.1 |
